{
  "source": "patent US7407933B2",
  "about": "“Drug containing angiotensin convertase” (priority 2002, dated 2008)",
  "molecules": {"B1": {"name": "GPI-PLD: only mammalian enzyme known so far showing GPI-anchor-cleaving activity (protein, UniProt P80108 24-840, looked up)", "Phosphatidylinositol-glycan-sp …": "CGLSTHVEIGHRALEFLQLHNGRVNYRELLLEHQDAYQAGIVFPDCFYPSICKGGKFHDVSESTHWTPFLNASVHYIRENYPLPWEKDTEKLVAFLFGITSHMAADVSWHSLGLEQGFLRTMGAIDFHGSYSEAHSAGDFGGDVLSQFEFNFNYLARRWYVPVKDLLGIYEKLYGRKVITENVIVDCSHIQFLEMYGEMLAVSKLYPTYSTKSPFLVEQFQEYFLGGLDDMAFWSTNIYHLTSFMLENGTSDCNLPENPLFIACGGQQNHTQGSKMQKNDFHRNLTTSLTESVDRNINYTERGVFFSVNSWTPDSMSFIYKALERNIRTMFIGGSQLSQKHVSSPLASYFLSFPYARLGWAMTSADLNQDGHGDLVVGAPGYSRPGHIHIGRVYLIYGNDLGLPPVDLDLDKEAHRILEGFQPSGRFGSALAVLDFNVDGVPDLAVGAPSVGSEQLTYKGAVYVYFGSKQGGMSSSPNITISCQDIYCNLGWTLLAADVNGDSEPDLVIGSPFAPGGGKQKGIVAAFYSGPSLSDKEKLNVEAANWTVRGEEDFSWFGYSLHGVTVDNRTLLLVGSPTWKNASRLGHLLHIRDEKKSLGRVYGYFPPNGQSWFTISGDKAMGKLGTSLSSGHVLMNGTLKQVLLVGAPTYDDVSKVAFLTVTLHQGGATRMYALTSDAQPLLLSTFSGDRRFSRFGGVLHLSDLDDDGLDEIIMAAPLRIADVTSGLIGGEDGRVYVYNGKETTLGDMTGKCKSWITPCPEEKAQYVLISPEASSRFGSSLITVRSKAKNQVVIAAGRSSLGARLSGALHVYSLGSD"}, "B2": {"name": "ACE (E414D): peptidase-inactivated mutant ACE with amino acid Glu414 replaced by Asp (protein, listed as Mus musculus)", "chain": "MGQGWATPGLPSFLFLLLCCGHHLLVLSQVATDHVTANQGITNQATTRSQTTTHQATIDQTTQIPNLETDEAKADRFVEEYDRTAQVLLNEYAEANWQYNTNITIEGSKILLEKSTEVSNHTLKYGTRAKTFDVSNFQNSSIKRIIKKLQNLDRAVLPPKELEEYNQILLDMETTYSLSNICYTNGTCMPLEPDLTNMMATSRKYEELLWAWKSWRDKVGRAILPFFPKYVEFSNKIAKLNGYTDAGDSWRSLYESDNLEQDLEKLYQELQPLYLNLHAYVRRSLHRHYGSEYINLDGPIPAHLLGNMWAQTWSNIYDLVAPFPSAPNIDATEAMIKQGWTPRRIFKEADNFFTSLGLLPVPPEFWNKSMLEKPTDGREVVCHPSAWDFYNGKDFRIKQCTSVNMEDLVIAHHDMGHIQYFMQYKDLPVTFREGANPGFHEAIGDIMALSVSTPKHLYSLNLLSTEGSGYEYDINFLMKMALDKIAFIPFSYLIDQWRWRVFDGSITKENYNQEWWSLRLKYQGLCPPVPRSQGDFDPGSKFHVPANVPYVRYFVSFIIQFQFHEALCRAAGHTGPLHKCDIYQSKEAGKLLADAMKLGYSKPWPEAMKLITGQPNMSASAMMNYFKPLTEWLVTENRRHGETLGWPEYNWAPNTARAEGSTAESNRVNFLGLYLEPQQARVGQWVLLFLGVALLVATVGLAHRLYNIRNHHSLRRPHRGPQFGSEVELRHSLAHRLYNIRNHHSLRRPHRGPQFGSEVELRHS"}, "B3": {"name": "ACE: angiotensin-converting enzyme, isoform not named at the place (ACE-S in the FACS tests of b107/b108) (protein, listed as Mus musculus)", "chain": "MGQGWATPGLPSFLFLLLCCGHHLLVLSQVATDHVTANQGITNQATTRSQTTTHQATIDQTTQIPNLETDEAKADRFVEEYDRTAQVLLNEYAEANWQYNTNITIEGSKILLEKSTEVSNHTLKYGTRAKTFDVSNFQNSSIKRIIKKLQNLDRAVLPPKELEEYNQILLDMETTYSLSNICYTNGTCMPLEPDLTNMMATSRKYEELLWAWKSWRDKVGRAILPFFPKYVEFSNKIAKLNGYTDAGDSWRSLYESDNLEQDLEKLYQELQPLYLNLHAYVRRSLHRHYGSEYINLDGPIPAHLLGNMWAQTWSNIYDLVAPFPSAPNIDATEAMIKQGWTPRRIFKEADNFFTSLGLLPVPPEFWNKSMLEKPTDGREVVCHPSAWDFYNGKDFRIKQCTSVNMEDLVIAHHEMGHIQYFMQYKDLPVTFREGANPGFHEAIGDIMALSVSTPKHLYSLNLLSTEGSGYEYDINFLMKMALDKIAFIPFSYLIDQWRWRVFDGSITKENYNQEWWSLRLKYQGLCPPVPRSQGDFDPGSKFHVPANVPYVRYFVSFIIQFQFHEALCRAAGHTGPLHKCDIYQSKEAGKLLADAMKLGYSKPWPEAMKLITGQPNMSASAMMNYFKPLTEWLVTENRRHGETLGWPEYNWAPNTARAEGSTAESNRVNFLGLYLEPQQARVGQWVLLFLGVALLVATVGLAHRLYNIRNHHSLRRPHRGPQFGSEVELRHSLAHRLYNIRNHHSLRRPHRGPQFGSEVELRHS"}},
  "key": {"sperm-zona binding": {"test_system": "sperm-zona binding", "assay": "Sperm-egg (zona pellucida) binding assay", "assay_type": "cell-based, mouse", "procedure": "All gametes were placed and handled within TYH medium. […] were isolated from wild-type mice and ACE knockout mice, and dispersed in 250 μl of medium. After sperms were floated for 15 minutes, transferred to 1.5 ml medium and incubated for at least 1 hour. Eggs were separated from superovulated mice and treated with 1 mg/ml of hyaluronidase (Sigma) on THY medium for removing laminated cells. Incubated sperms (approximately 2.0×10^6 sperm/ml) were treated for 90 min with 0.2 U wild-type ACE (ACE-WT), 0.2 U ACE-E414D, 1.0 IU/ml PI-PLC, or […] PI-PLC with 4 mM inositol monophosphate (Sigma), 4 mM inositol monophosphate, and buffer (PBS) alone. For the sperm-egg (zona pellucida) binding assay, gametes were co-incubated in a TYH droplet covered with mineral oil for 1 h, washed gently in PBS and fixed with 4% paraformaldehyde/PBS. The oocytes were visualized at 200× under a light microscope (Olympus) and the number of sperms was counted at a focus showing the widest diameter of eggs.\nIn addition, the effect of ACE on sperm-egg binding was examined. That is, Epididymal sperms of both wild-type and knockout mice were treated with either wild-type or peptidase-inactivated (E414D) ACEs or PI-PLC and then incubated with unfertilized eggs from C57BL/6 mice. These treatments had no effects on wild-type sperm-zona binding."}, "DAF": {"test_system": "DAF", "conditions": "erythrocyte having prominent acylation; cited from earlier work"}, "[1]": {"assay": "Peptidase activity of ACE", "assay_type": "biochemical", "conditions": "relative to wild-type ACE", "procedure": "FIG. 7 is a measurement of peptidase activity (Pase). The E414D is a mutant that Glu414 in the peptidase active site was substituted to Asp. WT, wild-type ACE-T. Procedures were accorded with the description of Kasahara and Ashihara, Clin Chem. 27:1922-1925.\nThe obtained PCR product encodes a FLAG-tagged version of the soluble testicular isoform. The cDNA for peptidase-inactivated mutant with amino acid Glu414 replaced by Asp was prepared by the site-directed mutagenesis with the mutation promer: 5′-cttggtgatag cgcaccacga tatgggccac atccagtatt tcatgca-3′ (SEQ ID NO: 3). The culture supernatants of COS7 cells transfected with the ACE cDNAs were collected and recombinant ACEs were purified by anti-FLAG M2-agarose affinity column (Sigma). The somatic isoform of ACE (ACE-S) from rabbit lung (Sigma A-6778) was also used according to the manufacturer's protocol. The peptidase activity of the ACE was measured by the reported method (Kawahara and Ashihara, Clin. Chem. 27:1922-1925, 1981). 1.9. FACS Analysis"}, "PLAP": {"test_system": "PLAP", "assay": "PLAP conversion assay (GPI-anchored protein releasing activity)", "assay_type": "biochemical", "conditions": "immunoblotting of PLAP", "procedure": "This assay uses a nature of nonionic detergent, TritonX-114, which distributes water-soluble molecules and hydrophobia molecules soluble to detergent. By the PLAP conversion assay, GPI-anchored protein releasing activity in a course of purification was monitored. PLAP was prepared by expressing cDNA in COS7 cells, extracted by buffer containing 20 mM Tris, pH 8.0, 150 mM NaCl, 1% TritonX-114, Complete™ protease-inhibitor and the detergent-soluble phase was collected after partitioning at 37° C. PLAP was purified by DEAE-cellulose ionic exchange liquid chromatography (LC) (elution buffer: […] tris pH8.0, 0.1% TritonX-100, 0 mM-500 mM NaCl gradient) and anti-PLAP antibody column (antibody: rabbit anti-PLAP polyclonal antibody, Biomeda; Column: Hitrap NHS-Activated HP, Amercham Bioscience; elution buffer: 100 mM glycine pH2.8). Using detergent-soluble PLAP protein as substrate performed assay. PLAP activity was measured with an alkaline phosphatase detection kit (Nacalai tesque). The conversion reaction was performed in 100 mM Tris, pH 7.5, 5 mM CaCl2, 150 mM NaCl and 0.3 IU/ml of PLAP for 90 min at 37° C. The reaction was stopped by adding TritonX-114 at a final concentration of 2% and 1 mM EDTA, followed by microcentrifugation at 25° C. The water-soluble phase was collected and PLAP activity was measured by the alkaline phosphatase detection kit. […]"}, "CD59": {"test_system": "CD59", "assay": "FACS analysis of shedding, CD59 on HeLa cells", "assay_type": "cell-based, human", "conditions": "filipin pre-treated HeLa cells"}, "EGFP-GPI [2]": {"test_system": "EGFP-GPI", "assay": "Radiolabeling analysis of released EGFP-GPI from F9 cells", "assay_type": "cell-based", "conditions": "filipin-pretreated F9 cells", "procedure": "F9 cells expressing EGFP-GPI were metabolically labeled with 0.2 mCi/ml of [^32P]-orthophosphoric acid (Amersham Bioscience) or 0.1 mCi/ml of [^3H]-ethanolamine (Amersham Bioscience) for 16 h. Filipin-pretreated cells were incubated with 0.5 μM of ACE, 1.0 IU/ml of PI-PLC or 10% lysate of mouse submaxillary gland containing mouse glandular kallikrein (mGK; enzyme digesting EGFP at near C-terminus) for 1 h at 37° C. Released EGFP was immunoprecipitated with anti-GFP antibody, subjected to SDS-PAGE and transferred onto nitrocellulose membrane. The quantity of EGFP-GPI protein was evaluated by measuring the density of bands detected on EGFP immunoblotting by using a densitometer (Molecular Device) and radioactivity of the cognate band was determined by a liquid scintillation counter.\nTherefore, the F9 cells expressing EGFP-GPI were metabolically labeled with [^32P]-phosphate or [^3H]-ethanolamine, and treated with ACE, PI-PLC or mGK. Then, the released proteins from the cells were applied to EGFP immunoblotting, to measure radioactivity for each band (FIG. 15). Measurements were performed at least four times, and the almost same results were obtained. Although the released EGFP-GPI products with ^32P or ^3H labeling were not detected by mGK treatments, both were detected by ACE treatment or PI-PLC treatment, indicating the presence of a portion of GPI-anchor structure in the ACE-released molecules."}, "prion protein": {"test_system": "prion protein", "conditions": "HEK293 cells, 1.0 U/ml"}, "EGFP-GPI [3]": {"test_system": "EGFP-GPI", "assay": "FACS analysis of shedding, EGFP-GPI on F9 cells", "assay_type": "cell-based", "conditions": "without filipin pre-treatment"}, "E-cadherin": {"test_system": "E-cadherin", "assay": "FACS analysis of shedding, E-cadherin on F9 cells", "assay_type": "cell-based, mouse"}},
  "data": [
    {"molecule": "O=P(O)(O)O[C@@H]1[C@@H](O)[C@H](O)[C@@H](O)[C@H](O)[C@@H]1O", "note": "[inositol monophosphate, reference compound]", "values": [
      {"measurement": "inhibition of the PI-PLC effect on egg binding of ACE knockout sperm", "setting": "sperm-zona binding; 4 mM with PI-PLC", "result": "inhibition"}
    ]},
    {"molecule": "B1", "values": [
      {"measurement": "release of DAF from the intact erythrocyte", "setting": "DAF", "result": "could not release"}
    ]},
    {"molecule": "B2", "values": [
      {"measurement": "peptidase activity compared with wild-type ACE", "setting": "[1]", "result": "less than 1/1000"},
      {"measurement": "GPI-anchored protein releasing activity compared with wild-type ACE", "setting": "PLAP", "result": "not changed"},
      {"measurement": "sperm-zona binding of ACE knockout sperm", "setting": "sperm-zona binding; epididymal sperm of ACE knockout mice, eggs from C57BL/6 mice", "result": "vigorously restored"}
    ]},
    {"molecule": "B3", "values": [
      {"measurement": "dose dependence of CD59 shedding", "setting": "CD59", "result": "dose-dependent"},
      {"measurement": "radioactivity of released products compared with PI-PLC-released molecules, labeled on the ethanolamine", "setting": "EGFP-GPI [2]; 3H ethanolamine label", "result": "a half"},
      {"measurement": "radioactivity of released products compared with PI-PLC-released molecules, labeled on the phosphate", "setting": "EGFP-GPI [2]; 32P phosphate label", "result": "about one-third"},
      {"measurement": "released EGFP-GPI products with 32P or 3H labeling", "setting": "EGFP-GPI [2]", "result": "detected"},
      {"measurement": "shedding of prion protein from cell surface", "setting": "prion protein", "result": "efficiently shed"},
      {"measurement": "effect on EGFP-GPI expression", "setting": "EGFP-GPI [3]", "result": "little effect"},
      {"measurement": "effect on the transmembrane protein E-cadherin", "setting": "E-cadherin", "result": "no effect"}
    ]}
  ]
}
